Data as given in patent publication US20160340659A1, “ACTIN BINDING PEPTIDES AND COMPOSITIONS COMPRISING SAME FOR INHIBITING ANGIOGENESIS AND TREATING MEDICAL CONDITIONS ASSOCIATED WITH SAME” (YISSUM RESEARCH AND DEVELOPMENT COMPANY OF THE HEBREW …, priority 2014, published 2016).
“Also recorded” adds a separate entry of the source. Each block holds one molecule with its values, some of them ahead of it.

Columns and labels:
[1] = biological target: T1, actin (Oryctolagus cuniculus, UniProt P68135); assay: Actin binding solid phase assay; details: immobilized actin; 0-500 ng/100 μl well
Experimental: 96-well plates (MaxiSorp® flat-bottom 96-well plate, Fisher Scientific Inc., Fair Lawn, N.J.) were coated with 500 ng actin in 100 μl carbonate-bicarbonate buffer (pH 9.5) for 1 h at 37° C. The plate was washed once with TBS and then blocked with 3% BSA in 200 μl TBS buffer at 37° C., for 1 h. Wells were then washed once with 250 μl TBS. trT2-49, trT2-49m or each of the 29 peptides were added at 1:2 dilutions in 100 μl TBS, starting from 500 ng/well, incubated for 1 h at 37° C. and then washed three times with TBS containing 0.1% Tween-20 (TBST). Each well was then treated with 100 μl rabbit anti-trT2-49 diluted 1:500 in TBS and incubated for 1 h at 37° C. The wells were washed three times with TBST and then incubated with 100 μl goat anti-rabbit IgG-HRP (Jackson ImmunoResearch, West Grove, Pa.) diluted 1:10,000 in TBS, for 1 h at 37° C. Wells were then washed twice with TBST, and once with TBS before 100 μl substrate (1-step Ultra TMB-ELISA, Pierce, Fisher Scientific Inc.) were added. Absorbance at 655 nm was measured 10 min thereafter using a Power Wave 200 Microplate Scanning Spectrophotometer (Bio-Tek Instrument, Winooski, Vt.). Affinity was evaluated by double reciprocal plotting.

[2] = test system: HUVEC; assay: HUVEC tube formation assay on Matrigel; type: cell-based, human; details: peptides at 2 μM, compared to Control
Experimental: FIGS. 6A-6D illustrate in-vitro inhibition of angiogenesis in the HUVEC model by T2 peptides. HUVEC cells plated on Matrigel™ were exposed to 2 μM of T2 peptides A103-Q159 (SEQ ID NO: 60), K108-K133 (SEQ ID NO: 57) or K108-L123 (SEQ ID NO: 67), in addition to 1 μg/ml of angiogenin or VEGF as the angiogenic agent, as indicated. Control wells received PBS. FIG. 6B-Results were assessed by imaging software, and quantified, and expressed relative to tube formation with angiogenin or VEGF alone (100%) Column 1=angiogenin, column 2=angiogenin+SEQ ID NO: 60, column 3=angiogenin+SEQ ID NO: 57, column 4=angiogenin+SEQ ID NO: 60, Column 5=VEGF, column 6=VEGF+SEQ ID NO: 60, column 7=VEGF+SEQ ID NO: 57, column 8=VEGF+SEQ ID NO: 60. FIGS. 6C and 6D illustrate the inhibitory effect of truncated human T2 polypeptide trT2-49m (SEQ ID NO: 129) on angiogenin and VEGF induced HUVEC tube formation. […]
HUVEC (CC-2519)(fresh or commercially provided) are maintained in M199 rrrediurn supplemented with 20% FCS, 1% glutamine, 1% antibiotic-antimycotic solution, ECGF, and heparin, plated in a 96-well plate (14×10^3 cells/well) previously coated with growth factor-depleted Matrigel™ (BD Biosciences), in M199 medium containing 5% FCS and 0.005% ECGF. […] Plates are incubated (overnight), photographed and the extent of tube formation (angiogenesis) assessed.

[3] = biological target: T1, actin; assay: Surface plasmon resonance (BIAcore) of actin binding; details: actin on CM5 chip, 25° C.
Experimental: SPR was performed on a BIAcore 3000 instrument (BIAcore, Uppsala, Sweden). Actin was diluted in 100 mM CH3COONa pH 4.6 to a final concentration of 20 μg/ml (200 μl total) resulting in ˜1 ng immobilized actin on a CM5 BIAcore sensor chip (GE Healthcare Bio-Sciences AB) using the standard BIAcore amine coupling chemistry protocol. The CM5 chip allows four separate flow cells to be operated in the BIAcore 3000 instrument used in these experiments. Coupling is achieved by activating the surface of the sensor chips with equal volumes of 50 mM N-hydroxysuccimide (NHS)/200 mM Nethyl-N-(3-[…])-carboiimide (EDC) (BIAcore, AB, Uppsala, Sweden) to form activated carboxyl groups. An actin solution (15 μg/ml) was run over the chip for 5 min at a rate of 10 μl/min, allowing the amine groups on the protein to react with the activated esters. In the final stage of immobilization, the surface was blocked by 1M ethanol amine, pH 8.0. […] The association phase for protein or peptides binding to actin was followed for 4 min, and dissociation phases were monitored for 3 min. […] The response was monitored as a function of time (sensorgram) at 25° C. […]

[4] = test system: chick Chorio-Allantoic Membrane (CAM); assay: Ex ovo CAM angiogenesis assay; type: in vivo, chicken; details: 3 μg on paper disk daily for four days from day 8; compared to PBS control
Experimental: In this assay, in-vivo angiogenesis is assessed on live chick embryos grown in petri dishes. Fertilized eggs are cracked into a petri dish after a few (e.g. 3) days incubation at appropriate temperature (e.g. 37° C.) and humidity. In the following days, the embryos developed a vascular network, which can then easily be exposed to any treatment or combination of treatments, for example, via delivery onto absorbent disks placed on/about the developing vascular regions. Angiogenesis is scored by periodically (e.g. 1×/day, 2×/day, 1×/2 days, 1×/4 days, etc) counting the number of blood vessels around the disk.
Fertilized chicken eggs were incubated horizontally at 37° C. and humidity of 60-62% and cracked into Petri dishes at embryonic day 4. Incubation was continued under the same conditions. […] Treatment was given every day for four days, then, the number of blood vessels around the treated disks was counted.

[5] = biological target: T2, G-Actin from rabbit muscle (Oryctolagus cuniculus, UniProt P68135); assay: ELISA actin binding assay (solid-phase, immobilized actin); details: immobilized G-actin 500 ng/well
T2 construct: G-Actin from rabbit muscle; purchased Sigma-Aldrich, St Louis, Mo; host or cells: rabbit muscle (tissue-derived)
Experimental: Peptides corresponding to a variety of amino acid sequences in the region of human RNASET2 comprising helix 5 and helix 6 were synthesized and assayed for actin binding in an ELISA actin binding assay.
Solid-phase ELISA for RNASET2 peptide binding to immobilized actin was performed as modified from Mejean 1987 (Biochem. J. 244: 571-577) and Mejean 1992 (Eur. J Biochem. 209: 555-562). All steps were conducted at 37° C. Immuno-96 Microwell™ solid plates (Thermo Fisher Scientific, MA) coated with 500 ng/well of G-Actin from rabbit muscle (Sigma-Aldrich, St Louis, Mo.) in 100 ul of 0.05 M carbonate buffer, pH 9.5 (Sigma-Aldrich, Mo), incubated for 1 h and washed with 250 ul/well Tris Buffered Saline (TBS) (Sigma-Aldrich). The wells were blocked with 3% bovine serum albumin (BSA, Sigma-Aldrich) in 200 ul/well TBS for another 1 hour and washed with 250 ul/well TBS. […] After an additional wash with 250 ul/well TBS, 1-Step Ultra TMB-ELISA (TMB-3,3′,5,5′ Tetramethylbenzidine) (Thermo-Scientific) was added (100 ul/well) and after 15-25 min of incubation, the reaction was read at A650 using Infinite F50-TECAN ELISA READER (TECAN, Austria). […]

Ka × 10^3 [3]: 0.50 ×10^3 1/Ms
B1: SEQ ID NO: 129: truncated version of hRNASET2 (trT2-49) missing amino acids E120-V141, expressed in E. coli (protein)
chain: EGCNRSWPFNLEEIKDLLPEMRAYWPDVIHSFPNRSRFWKHEWEKHGTCAAQVDALNSQKKYFGRSLELYRADFKDALARVYGVIPKIQCLPPSQDEEVQTIGQIELCLTKQDQQLQNCTEPGEQPSPKQEVWLANGAAESRGLRVCEDGPVFYPPPKKTKH
actin binding in solid-phase assay [1]: bound actin in a concentration-dependent manner; also recorded: effective and concentration-dependent binding of actin
inhibition of VEGF-induced tube formation ([2]; 1 μg/ml VEGF): 35%
inhibition of angiogenin-induced tube formation ([2]; 1 μg/ml angiogenin): 40%

actin binding on ELISA [5]: effectively binds actin
Ka × 10^3 [3]: 1.71 ×10^3 1/Ms
B2: SEQ ID NO: 84: truncated RNASET2 polypeptide representing amino acids 49-232 of full length, native RNASET2 (protein)
chain: EGCNRSWPFNLEEIKDLLPEMRAYWPDVIHSFPNRSRFWKHEWEKHGTCAAQVDALNSQKKYFGRSLELYRELDLNSVLLKLGIKPSINYYQVADFKDALARVYGVIPKIQCLPPSQDEEVQTIGQIELCLTKQDQQLQNCTEPGEQPSPKQEVWLANGAAESRGLRVCEDGPVFYPPPKKTKH
actin binding in solid-phase assay [1]: effective and concentration-dependent binding of actin
inhibition of angiogenesis (number of blood vessels around disk) [4]: effective in inhibiting angiogenesis
